Source: patent US20190010233A1 (JIANGSU HYAMAB PHARMACEUTICAL, published 2019)
Like-named read-outs stand apart in the source and are kept apart here.

Columns and labels:
[1] = biological target: T1, full length human PD-L1 on cells (human, UniProt Q9NZQ7 19-290); assay: cell-based or functional assay
[2] = biological target: T2, full length cyno PD-L1 on cells (cyno, UniProt G7PSE7 19-290); assay: FACS CHO-K1-cPD-L1, 30 nM mAb
T2 construct: also called CHO-K1-cPD-L1

[3] = biological target: T3, human PD-L1^ECD-hFc protein (human, UniProt Q9NZQ7 19-239, biotinylated in the PD-1 binding ELISA (Table 3) and in the Octet assay (Table 12)); assay: ELISA receptor-ligand blocking assay: PD-L1 protein coated, fully human antibody titrated, blocked ligand PD-1, inhibition rate (%)
T3 construct: The plain and the biotinylated protein are kept as one molecule; also called PD-L1-hFc; Immunogen A; not shown: human IgG Fc fragment (hFc)
T3 sequence (Q9NZQ7 19-239): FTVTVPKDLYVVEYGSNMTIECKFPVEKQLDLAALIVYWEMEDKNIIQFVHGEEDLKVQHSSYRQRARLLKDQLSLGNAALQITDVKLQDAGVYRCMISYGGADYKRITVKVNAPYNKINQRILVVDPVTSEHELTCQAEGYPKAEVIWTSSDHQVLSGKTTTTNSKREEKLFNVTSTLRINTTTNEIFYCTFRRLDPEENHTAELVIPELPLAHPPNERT

[4] = biological target: T1, full length human PD-L1 on cells; assay: FACS CHOK1-hPD-L1, 3 nM mAb
[5] = biological target: T2, full length cyno PD-L1 on cells; assay: FACS CHO-K1-cPD-L1, 300 nM mAb
[6] = biological target: T2, full length cyno PD-L1 on cells; assay: FACS CHO-K1-cPD-L1, 0.03 nM mAb
[7] = biological target: T1, full length human PD-L1 on cells; assay: FACS CHOK1-hPD-L1, 300 nM mAb
[8] = biological target: T2, full length cyno PD-L1 on cells; assay: FACS CHO-K1-cPD-L1, 3 nM mAb
[9] = biological target: T1, full length human PD-L1 on cells; assay: FACS CHOK1-hPD-L1, 0.003 nM mAb
[10] = biological target: T1, full length human PD-L1 on cells; assay: FACS CHOK1-hPD-L1, 0.3 nM mAb
[11] = biological target: T3, human PD-L1^ECD-hFc protein; assay: ELISA receptor-ligand blocking assay: PD-L1 protein coated, fully human antibody titrated, blocked ligand B7.1, inhibition rate (%)
[12] = biological target: T1, full length human PD-L1 on cells; assay: cell-based or functional assay; remark: listed apart in the source
[13] = biological target: T2, full length cyno PD-L1 on cells; assay: FACS CHO-K1-cPD-L1, 0.0003 nM mAb
[14] = biological target: T2, full length cyno PD-L1 on cells; assay: FACS CHO-K1-cPD-L1, 0.003 nM mAb
[15] = biological target: T1, full length human PD-L1 on cells; assay: FACS CHOK1-hPD-L1, 30 nM mAb
[16] = biological target: T1, full length human PD-L1 on cells; assay: FACS CHOK1-hPD-L1, 0.0003 nM mAb
[17] = biological target: T1, full length human PD-L1 on cells; assay: FACS CHOK1-hPD-L1, 0.03 nM mAb
[18] = biological target: T2, full length cyno PD-L1 on cells; assay: FACS CHO-K1-cPD-L1, 0.3 nM mAb
[19] = biological target: T1, full length human PD-L1 on cells; assay: cell-based or functional assay; remark: listed apart in the source
[20] = biological target: T1, full length human PD-L1 on cells; assay: cell-based or functional assay; remark: listed apart in the source
[21] = biological target: T4, recombinant His-tagged hPD-L1 ECD protein (human, UniProt Q9NZQ7 19-239); assay: SPR Biacore T200, mAb captured by anti-human Fc, His-tagged hPD-L1 ECD as analyte, 1:1 model
T4 construct: also called His-tagged human PD-L1 ECD protein; His-tagged PD-L1^ECD; not shown: His tag
T4 sequence (Q9NZQ7 19-239): as above
Procedure: Anti-human Fc IgG was immobilized on flow cells 1 and 2: HBS-EP+ (10 mM HEPES, 150 mM NaCl, 3 mM EDTA, 0.05% P20, pH 7.4) was used as miming buffer, and the immobilization of anti-human Fc IgG was carried out using the immobilization wizard template. Flow cells 1 and 2 of a Series S CM5 sensor chip were activated with freshly-mixed 50 mmol/L NHS and 200 mmol/L EDC. 20 μg/mL of anti-human Fc IgG diluted in 10 mM NaAC (pH 4.5) was injected into the activated flow cells 1 and 2. The remaining active coupling sites were blocked with 1M ethanolamine.
KD measurements were carried out with HBS-EP+ as the running buffer. Each antibody was injected over the CM5 sensor flow cell 2 with a flow rate of 10 μL/min to reach response 230 RU. […] Buffer flow was maintained for 400 seconds for dissociation measurements (30 μL/min). To remove the tested antibody from the surface, 10 mM glycine-HCl pH 1.5 was injected for 20 seconds (30 μL/min). Flow cell 1 was used as reference flow cell. The above steps were repeated for each concentration of serially-diluted His-tagged PD-L1^ECD protein. The KD value for each antibody was evaluated using Biacore T200 evaluation software 1.0, and the data was fit with a 1:1 binding model.

T2 sequence (G7PSE7 entry or part of it limits assumed): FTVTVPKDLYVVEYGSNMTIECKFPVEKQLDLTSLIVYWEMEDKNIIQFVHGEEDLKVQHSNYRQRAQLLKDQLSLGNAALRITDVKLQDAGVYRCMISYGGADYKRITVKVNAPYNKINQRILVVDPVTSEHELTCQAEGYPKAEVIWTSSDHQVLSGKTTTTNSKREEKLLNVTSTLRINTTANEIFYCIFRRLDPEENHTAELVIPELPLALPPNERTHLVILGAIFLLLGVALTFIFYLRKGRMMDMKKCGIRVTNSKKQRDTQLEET
T1 sequence (Q9NZQ7 19-290 limits assumed): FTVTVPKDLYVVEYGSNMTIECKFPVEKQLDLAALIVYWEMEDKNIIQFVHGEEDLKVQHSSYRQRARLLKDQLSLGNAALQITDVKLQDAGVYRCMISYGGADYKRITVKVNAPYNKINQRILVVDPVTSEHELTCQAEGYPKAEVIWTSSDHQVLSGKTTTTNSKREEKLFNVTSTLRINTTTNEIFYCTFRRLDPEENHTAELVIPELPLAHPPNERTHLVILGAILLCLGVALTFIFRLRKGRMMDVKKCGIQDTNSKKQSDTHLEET

Binder	Mean fluorescence intensity [2]	IC50 (read off the curve) [3] [nM]	Mean fluorescence intensity [4]	Mean fluorescence intensity [5]	Mean fluorescence intensity [6]	Mean fluorescence intensity [7]	Mean fluorescence intensity [8]	Mean fluorescence intensity [9]	Mean fluorescence intensity [10]	IC50 (read off the curve) [11] [nM]	IFN-γ (pg/mL), MLR, 0.001 µg/mL mAb [12] [pg/mL]	IFN-γ (pg/mL), MLR, 0.01 µg/mL mAb [12] [pg/mL]	IFN-γ (pg/mL), MLR, 0.1 µg/mL mAb [12] [pg/mL]	IFN-γ (pg/mL), MLR, 1 µg/mL mAb [12] [pg/mL]	IFN-γ (pg/mL), MLR, 10 µg/mL mAb [12] [pg/mL]	Mean fluorescence intensity [13]	Mean fluorescence intensity [14]	Mean fluorescence intensity [15]	Mean fluorescence intensity [16]	Mean fluorescence intensity [17]	other results
fully human anti-PD-L1 antibody 105C5D7 (antibody, V domains shown, also called 105C5D7 (fully human)) VH: EVQLVESGGGLVQPGGSLRLSCAASGFTFSSYWMSWVRQAPGKGLEWVANIKQDGNEKYYVDSVKGRFTISRDNAKNSLYLQMNSLRAEDTAVYYCARNIKWGDAFDIWGQGTMVTVSS VL: DIQMTQSPSSLSASVGDRVTITCRASQSISSYLNWYQQKPGKAPKLLIYAASSLQSGVPSRFSGSGSGTDFTLTISSLQPEDFAIYSCQQSYSIPLTFGGGTKVEIKR	335	~2	435	299	18.8	382	375	7.3	116	~2	1880	2580	4930	4280	5260	5.31	9.85	380	6.61	23.1	IL-2 (pg/mL), MLR, 0.001 µg/mL mAb [1]: 43 pg/mL; IL-2 (pg/mL), MLR, 0.01 µg/mL mAb [1]: 92.2 pg/mL; IL-2 (pg/mL), MLR, 0.1 µg/mL mAb [1]: 118 pg/mL; IL-2 (pg/mL), MLR, 1 µg/mL mAb [1]: 148 pg/mL; Mean fluorescence intensity [18]: 107
fully human anti-PD-L1 antibody 78A11F6 (antibody, human IgG4 S228P, kappa, V domains shown, also called 78A11F6 (fully human)) VH: EVQLVESGGGLVQPGGSLRLSCAASGITFSSYWMSWVRQTPGKGLEWVANIKQDGSEKYYVKSVKGRFTISRDNAKNSLYLQMNSLRAEDTAVYYCVRDRAVPGTGAFDIWGQGTMVIVSS VL: DIQMTQSPSTLSASVGDRVTITCRASQSISNWLAWYQQKPGKAPKLLIYKASSLESGVPSRFSGSGSGTEFTLTISSLQPDDFATYYCQQYDSSLFTFGQGTKLEIKR	529	~0.7	619	538	64.1	633	521	10.4	217	~0.7	1080	1650	3010	3760	3400	5.47	8.94	620	6.53	36.5	IFN-γ (pg/mL), T cell stimulation assay, 0.001 µg/mL mAb [19]: 4030 pg/mL; IFN-γ (pg/mL), T cell stimulation assay, 0.01 µg/mL mAb [19]: 9200 pg/mL; IFN-γ (pg/mL), T cell stimulation assay, 0.1 µg/mL mAb [19]: 9840 pg/mL; IFN-γ (pg/mL), T cell stimulation assay, 1 µg/mL mAb [19]: 9960 pg/mL; IFN-γ (pg/mL), T cell stimulation assay, 10 µg/mL mAb [19]: 12500 pg/mL; IL-2 (pg/mL), MLR, 0.001 µg/mL mAb [20]: 210 pg/mL; IL-2 (pg/mL), MLR, 0.01 µg/mL mAb [20]: 283 pg/mL; IL-2 (pg/mL), MLR, 0.1 µg/mL mAb [20]: 730 pg/mL; IL-2 (pg/mL), MLR, 1 µg/mL mAb [20]: 736 pg/mL; IL-2 (pg/mL), MLR, 10 µg/mL mAb [20]: 842 pg/mL; Kd [21]: 0.643 nM; koff [21]: 0.000472 s⁻¹; kon [21]: 734000 M⁻¹ s⁻¹; Mean fluorescence intensity [18]: 243
